According to the supplement of paper PMC10567573:

B1: PCDHGA10 (parent)
chain: FHELQMQVTASDSGDPPLSSNVSL
B2: PPFIA4 (parent)
chain: PGVHRRYSALREESAKDWETSPLP

Variants of: B1
Experiment: protein stability index of a GFP-peptide fusion (GPS, HEK-293T) (PSI 1-6); higher = more stable
Conditions: c terminus: a fixed tail appended
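Also: lentivirally expressed fusions sorted by FACS into six bins by GFP to DsRed ratio, PSI derived from sequencing read proportions per bin multiplied by bin number.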

Protein stability index of substitutions, site by site:
S11: I 1.88 | Y 1.47 | P 2.21 | G 2.13
M6: E 3.77 | Q 3.54 | P 3.87
D15: N 2.48 | F 1.4 | L 1.64 | P 1.95
E3: P 1.97 | F 2.39 | K 2.21 | Q 1.85
N21: E 2.61 | I 1.79 | P 2.5 | A 2.25
L4: W 2.2 | H 2.87 | D 3.84
S20: T 2 | M 2.2 | W 3.19 | C 1.62 | Q 1.98
G14: Y 1.94
P16: A 1.74 | G 2.33 | V 2.21
V22: R 2.69 | H 3.13
S13: P 1.71 | Q 2.15 | D 2.53 | I 1.66
V8: I 2.29 | T 2.81
H2: E 4.28 | A 3.07
Q7: L 1.89 | W 2.57 | V 1.82 | C 1.6
P17: I 2.65
L18: H 3.04 | K 2.31 | E 2.53 | M 2.31
S19: D 3.07
Q5: E 3.23 | L 1.4
F1: K 4.51 | Y 2.78 | N 4.61 | T 4.57
T9: N 2.83 | A 2.55 | D 2.65
D12: M 3 | T 1.86 | G 2.14
A10: I 2.38 | V 1.26 | G 2.24 | M 1.49
S23: H 2.14 | N 2.46 | Q 2.1 | G 2.01 | L 2.05 | W 2.08 | M 2.15

Variants of: B2
Experiment: as above
Conditions: c terminus: a fixed tail appended

Protein stability index: each site, then its substitutions
A15: R 4 | V 3.89 | G 4.07 | W 3.86 | L 4.12 | S 3.76 | K 4.59 | C 3.63 | Y 3.32 | N 3.92 | T 4.63
S14: F 3.63 | Q 3.63 | H 4.19 | P 3.87 | R 3.07 | M 3.41 | E 4.69 | G 4.12 | T 3.56
E13: S 3.96 | I 3.45 | N 3.42 | M 2.96 | A 3.75 | K 3.69 | W 2.64 | Q 4.04 | G 3.93 | T 3.51 | D 3.74 | C 2.38 | H 2.63 | V 4.06 | L 3.34 | Y 3.14 | P 3.11
Y7: A 4.8 | M 4.56 | D 4.38 | S 4.58 | K 4.58 | W 4.2 | F 4.13 | G 4.62 | L 4.18 | R 4.6 | I 4.34 | P 4.24 | C 3.87 | Q 4.9
E19: S 3.17 | W 2.41 | H 3.41 | K 3.68 | P 3.59 | C 3 | T 3.96 | F 2.4 | Q 4.18 | I 3.41
G2: I 4.51 | W 4.36 | T 4.67 | C 3.42 | H 3.18 | R 4.11 | A 3.85 | S 4.28 | K 3.98 | V 4.16
T20: N 4.55 | R 3.66 | P 4.6 | E 4.62 | S 4.83 | M 4.37 | W 2.3 | D 5.09 | A 4.05 | Y 3.46
K16: P 3.89 | I 3.96 | D 4.45 | A 3.7 | M 4.24 | F 3.17 | E 4.51 | C 4.02
P1: F 3.63 | Q 4.18 | D 3.93 | C 2.65 | V 3.74 | I 4.16 | G 4.03 | A 3.5 | L 3.11 | H 4.36 | N 3.88 | K 4.41
A9: V 4.12 | F 2.91 | S 4.22 | L 4.27 | T 4.19 | N 4.4 | W 3.58 | C 3.67 | E 3.92 | H 3.92 | Q 3.5
L10: C 2.28 | Y 4.02 | Q 3.63 | N 4.79 | V 4.26 | T 4.97 | H 4.48 | S 4.53 | F 4.29
L23: Y 3.87 | E 3.3 | V 2.13 | N 5 | I 4.26 | S 4.56 | K 5.38 | H 4.53 | Q 4.37
D17: W 1.97 | T 3.31 | Y 2.72 | C 3.53 | G 3.9 | R 3.34 | P 3.04 | L 2.89 | K 3.36 | S 4.16
E12: K 3.96 | W 3.11 | I 3.21 | L 3.45 | A 3.94 | D 4.05 | C 3.57 | T 4.02 | F 3.02 | Q 3.68 | Y 3.48 | P 3.88 | H 3.85
S8: D 4.97 | N 4.34 | T 2.88 | P 4.28 | H 3.76
V3: R 4.33 | Q 4.42 | M 5.03 | P 4.6 | G 4.84 | T 4.7
H4: R 3.42 | E 4.53 | T 4.36 | W 3.15 | N 4.52 | C 2.79 | Y 4.81
R5: D 5.06 | C 2.68 | T 3.91 | K 4.34 | P 4.54 | W 3.81 | V 3.67 | S 4.58 | Y 3.66 | A 4.86 | F 3.99 | Q 4.6
P22: D 4.63 | A 4.11 | E 4.94 | C 4.02 | F 3.19 | S 4.31 | I 3.48 | Y 3.3 | Q 4.63 | N 4.52 | H 4.28 | R 3.18 | V 3.68 | K 4.23
W18: N 5.29 | E 5.15 | G 5.21 | Y 4.73 | K 4.7 | Q 4.77 | C 5.36 | V 4.67 | T 5.24 | D 5.58 | P 5.21 | L 4.96 | A 4.95
S21: W 4.24 | H 3.42 | C 3.88 | A 4.93 | Q 4.24 | G 3.25 | I 3.39 | Y 3.2 | V 3.76 | P 4.08 | D 5.1
P24: Q 3.45 | F 3.59 | T 4.04 | H 3.19 | V 4.15 | Y 3.45 | K 4.6 | N 4.43 | L 3.62 | E 4.71 | C 4.22 | I 3.87 | G 4.25 | D 4.59
R11: C 4.37 | I 3.92 | S 4.55 | N 4.58 | T 4.88 | Y 3.79 | D 4.82 | H 3.67 | A 4.31 | E 5.29 | K 4.36
R6: K 4.65 | M 3.82 | Y 3.62 | E 4.88 | I 3.39 | S 4 | G 3.98 | H 3.65 | L 3.04 | P 3.91 | N 4.48 | T 4.35 | W 2.71 | Q 4.31
